In patent US10577406B2, “FKBP-L polypeptides and uses in angiogenesis-mediated disorders” (ALMAC DISCOVERY LIMITED, priority 2006, dated 2020):

B1: full length recombinant FKBP-L: recombinant full length his-tagged FKBP-L protein (SEQ ID NO: 1) expressed in BL21 (DE3) (protein, listed as Homo sapiens)
chain: MRGSHHHHHHGMASMTGGQQMGRDLYDDDDKDRWGSMETPPVNTIGEKDTSQPQQEWEKNLRENLDSVIQIRQQPRDPPTETLELEVSPDPASQILEHTQGAEKLVAELEGDSHKSHGSTSQMPEALQASDLWYCPDGSFVKKIVIRGHGLDKPKLGSCCRVLALGFPFGSGPPEGWTELTMGVGPWREETWGELIEKCLESMCQGEEAELQLPGHTGPPVGLTLASFTQGRDSWELETSEKEALAREERARGTELFRAGNPEGAARCYGRALRLLLTLPPPGPPERTVLHANLAACQLLLGQPQLAAQSCDRVLEREPGHLKALYRRGVAQAALGNLEKATADLKKVLAIDPKNRAAQEELGKVVIQGKNQDAGLAQGLRKMFG
modifications: His tag

Tests used:
[1] = system: bFGF-induced vessels in subcutaneously implanted polyether sponges; experiment: mouse sponge assay of angiogenesis in vivo; parameters: species or system C57 black mice; conditions: for reduction in vessel number versus bFGF alone: day 21
Protocol: In these experiments, polyether sponges were subcutaneously implanted in C57 black mice and injected on alternate days with 10 ng bovine fibroblast growth factor (bFGF) or 10 ng bFGF+5 μg full length His-tagged recombinant FKBP-L polypeptide (SEQ ID NO: 1). After 14 days of treatment, sponges were harvested, sectioned and stained with heamatoxylin and eosin.
This experiment evalulated the ability of the FKBP-L 24mer to inhibit angiogenesis using the mouse sponge assay. Polyether sponges were subcutaneously implanted in C57 black mice on day 0 and injected on alternate days with (a) 10 ng bFGF control (3 mice) (b) 10 ng bovine fibroblast growth factor (bFGF)+5 μg full-length his-tagged recombinant FKBPL (equivalent to 3.2×10^−6 M in vitro) (3 mice) (c) 10 ng bFGF+0.35 μg FKBPL 24mer (molar equivalent of 5 μg full-length recombinant FKBPL) (3 mice) or (d) 0.11 ng FKBPL 24mer (equivalent to 10^−9 M in vitro) (3 mice).
All mice were sacrificed on day 21. Sponges were removed, fixed and paraffin embedded. Five micron sections were stained with haematoxylin and eosin. Vessels were blindly counted by 3 independent assessors using ×40 magnification in 10 fields per section. The average count per sponge/mouse was then plotted for each assessor.

[2] = system: PC3 (prostate tumor cell line; CD44 +ve); experiment: tumor cell migration, wound closure assay, PC3; assay type: cell-based; conditions: for effect on tumor cell migration: PC3
Protocol: In these experiments, the effect of recombinant FKBP-L on tumor cell migration was assessed. The in vitro migration assay used in these studies is a modified version of the method described by Ashton et al (1999) see supra. PC3, MDA231, and HT29 tumor cells were plated into individual chambers on a glass slide and grown to 90% confluence overnight. The medium was removed and the monolayers wounded. The monolayer was re-supplemented with fresh medium and the required volume of His-tagged recombinant FKBP-L protein (SEQ ID NO: 1) was added to give the final concentrations shown. The monolayers were incubated for 24 hours and then fixed in 4% PBS buffered paraformaldehyde.
The extent of “wound” closure was blindly assessed microscopically by an independent investigator and quantified using a calibrated eyepiece graticule (1 mm/100 μm graduation) at 20× magnification (Olympus BX 50). The extent of closure in the FKBP-L treated slides was compared to time matched sham-treated controls and the percent inhibition of wound closure compared to time matched controls calculated.
The in vitro migration assay used in these studies is a modified version of the method described by Ashton et al. (1999) see supra. PC3 (prostate tumor cell line; CD44 positive; CD44 +ve), MDA231 (breast tumor cell line; CD44 +ve), HT29 (Colorectal tumor cell line; CD44 +ve), MCF-7 (breast tumor cell line; CD44 negative; CD44 −ve) and DU145 (prostate tumor cell line; CD44 −ve) were plated into individual chambers on a glass slide and grown to 90% confluence overnight. The medium was removed and the monolayers wounded. […] The monolayers were incubated for 24 h and then fixed in 4% PBS buffered paraformaldehyde.
The extent of “wound” closure was blindly assessed microscopically by an independent investigator and quantified using a calibrated eyepiece graticule (1 mm/100 μm graduation) at 20× magnification (Olympus BX 50). The extent of closure in the FKBP-L treated slides was compared to time matched sham treated controls and the % inhibition of wound closure compared to time matched controls calculated.
PC3 cells were transfected for 72 h with either sicontrol non-targeting siRNA (SCR siRNA) (Dharmacon, Cat #D-001210-01-05) or CD44 targeted siRNA (CD44siRNA) (Dharmacon, Cat #009999). Briefly, 1.2×10^6 PC3 cells were seeded into two P90 dishes and incubated at 37° C. for 24 h. To transfect, 150 μl of the either sicontrol non-targeting siRNA or CD44 targeting siRNA (2 μM) was added to 450 μl of serum free medium (Tube 1). […] The monolayer was fixed after a further 24 h and the extent of wound closure was blindly assessed using a calibrated graticule. Percent inhibition of wound closure in FKBP-L-treated monolayers compared to untreated monolayers was calculated. […]

Row | Molecule | reduction in vessel number versus bFGF alone ([1]; 10 ng bFGF + 0.35 μg on alternate days) | reduction in vessel number versus bFGF alone ([1]; lowest dose (0.11 ng, equivalent to 10^−9 M in vitro) on alternate days) | effect on tumor cell migration ([2]; 10^−14-10^−7 M, 24 h) | reduction in vessel number versus bFGF alone ([1]; 10 ng bFGF + 5 μg on alternate days) | vessel counts versus bFGF alone ([1]; 10 ng bFGF+5 μg on alternate days, 14 days, p=0.0008) | effect on tumor cell migration ([2]; 24 hours) | effect on migration of CD44 siRNA treated cells ([2]; PC3 transfected with CD44 targeted siRNA, 1500 ng/ml, 24 h) | inhibition of migration (wound closure) compared to untreated monolayers ([2]; PC3 transfected with non-targeting SCR siRNA, 1500 ng/ml, 24 h)
1 | H-QIRQQPRDPPTETLELEVSPDPAS-OH [FKBP-L 24mer] | 80% | 70% | can inhibit | – | – | – | – | –
2 | B1 | – | – | – | 50% | significantly fewer vessels | inhibits tumor cell migration in a dose-dependent manner | no effect | 21.7%
